Laboratory results from the nanobody polyreactivity screen of Harvey et al. (2022).

Assay: yeast display, Sf9 membrane polyspecificity reagent, FACS + sequencing; frameworks hold sequencing errors
Procedure, shortened: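 Polyreactivity labels are assigned by the sorting gate from which each nanobody was recovered. The gates were low and high (top ~1%), set on anti-HA fluorescence for expression and streptavidin fluorescence for reagent binding. Before sorting, galactose-induced (36–48 hours) yeast display cells were stained for 1 hour at 4 °C with 10% biotinylated, detergent-solubilized Sf9 membrane reagent.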

Sequence	polyreactivity (PSR sort gate)
EEELVESGGGLVQAGGSLRLSCAASGRTFVYNAMGWYRQAPWKERELVAAITSGDSTYYADSVKGRFTISRDNAKNTVYLQMNSLKPEDTAVYYCATDYSGIFYWYDYWGQGTQVTVSS	low polyreactivity
EEELVESGGGLVQAGGSLRLSCAASGSIFYYNAMGWYRQAPGKERELVAAISRGGTTNYADSVKGRFTISRDNAKNTVYLQMNSLKPEDTAVYYCAAKAYDYYGPVYYWGQGTQVTVSS	high polyreactivity
EEELVESGGGLVQAGGSLRLTCAASGFIFAYNAMGWYRQAPGKEREFVAAISRSGGSTYYADSVKGRFTISRDNAKNTVYLQMNSLKPEDTAVYYCAARRSVGGYGYWGQGTQVTVSS	high polyreactivity
EEELVESGGGLVQAGGSSLRLSCAASGFIFVSNAMGWYRQAPGKERELVASIRWSDGSTFYADSVKGRFTISRDNAKNTVYLQMNSLKPEDTAVYYCNAVYEHRRVGWVTIDYGYWGQGTQVTVSS	low polyreactivity
EVHLLESGGGLVQAGGSLRLSSAASGFTFACNAMGWYRQAPGKERELVAALTWGDNSTYYADSVKGRFTISRDNAKNTVYLQMNSLKQEDTAVYYCGARVTHWYYLFGYDYWGQGTQVTVSS	low polyreactivity
EVQLVESGGGLVQAGGSLRLSCAASGFFYPNNAMGWYRQAPGKERELVARISYGGGDTHYADSVKGRFTISRDNAKNTVYLQMNSLKPEDTAVYYCAVKDGQDDYWGQGTQVTVSS	low polyreactivity
EVQLVESGGGLVQAGGSLRLSCAASGRIFYTNTMGWYRPAPGKERELVATGSTYYADSVKGRFTISRDNAKNTVYLQMDSLKPEDTAVYYCAKRGDFLTKRYESGSAASDYLGQGTQVTVSS	low polyreactivity
EVQLVESGGGLVQAGGSLRLSCAASGRTIGFNGMAWYRQAPGKERELFAAITRSGGNTYADSVKGRFTISRDNAKNTVYLQMNSLNPEDSAVYYCATTYVGETLTGPGDYWGQGTQVTVSS	low polyreactivity
EVQLVESGGGLVQPGGILRVSCAASGYIYSRYRKGWYRQAPGKRREFVAAISGGSSTNYADSVKGRFTISRDNSKKTVYLQMNSLRAEDTAVYYCADSKIDSDPRVYWGQGYQVTVSS	low polyreactivity
EVQLVESGGGLVQTGGSLRLSCAASGYIYSRYRMGWYRQAPGKGREIVAAISGGSSTNYADSVKGRFTISRDNSNNTVYLQMNSLRAEDTAVYYCAAYKIDSDTRVYWGQGTQVTVSS	low polyreactivity
EVQLVESGGGVDQAVGSLRLSCAASGSIFLFYARGWYRQARGKEMELVARISFRSTSTYYADSVKGRFTISLDNAKYTVSLQMNSLKPEDTAVYYCATRTWYGYLYDYWGQGTQVTVSS	high polyreactivity
EVQLVESGVGLVQAGGSLRLSCAASASIFLSYAMGCYRQAPGKVRELVDAISRRGGSTYYADSVKGRFTISRDFAKNTVYLQMNSLKPEDTAVYYCAADLTGPYDYWGQGTQVTVSS	high polyreactivity
EVQRVESGGGLVQAGCSLRLSCAASGINFSIYAMGWYRQAPGKERELVADITYSGGRTYYADSVKGRFTISRDNAKNTVYLQLYSLKPEDTAVYYCAAVGYGDYYWGQGTQVTVSS	high polyreactivity
HDQLVESGGGLLQAGGSLRLSCAASGITLYRYVMGWYRQAPGKERELVAYIAGRGTSTYYSDSVKGRFTISRDHAKNTVYLQMNSLKPEDTAVYFCNAEYTKTGALVIPYTYYYAEDYWGQGTQVTVSS	low polyreactivity
HDQLVESGGGLVQAGGSLRLSCAASGFTFLDYAMGWSRKAPGKERELVASISSSGGSTRYADSVKGRFTISRDNAKNTVYLQMKSLKPQDTAVYYCNAQIAEVPNDYWGQGTPVTVSS	low polyreactivity
HDQLVETGGGLVQAGGSLRLSCAASGFTFRAYAMGWYRQAPGKEREFVAAISRRGGSTSYADSVKGRFTISRDNAKNTVYLQMNSLKPEDTAVYYCAATYQILTTSAHDSWGQGTQVTVSS	high polyreactivity
HDQRVESGGGLVQAGGSLRLSCAASGITFASYAMGWYRQAPGKDRELVAAISWGGSRTYYADSVKGRFTISRDTAKISVYLQMNSLKPEDTAVYYCNAHTRYGPDYSYYYWGQGTQVTVSS	high polyreactivity
HGQLVESAAGLVQAGGSLRLSGAASGLIFYDNMGWYRQAPAKDRELVAAISSSGGSTSYADSVKGRFTISRDNAKNTFYLQMNSLKPEDTAVYYCAADSYPAYLGFVGFDYWGLGTQVTVSS	low polyreactivity
HGQLVESGGGLVQAGGSLRLSCAASGSHLSNYAMGWYREAPGKERELVAAISLSVGSTYYADSVKGRFTISRDNAKNTVYLQMNSLKPEDTAVYYCAADDFYSGPFRGDYWGQGTQVTVSS	low polyreactivity
HLHLPERVGGLVHAGGSLRLSSAASGYISWAGYMGWYRQPPGKERELVATISYGTSTSYADSVKGRFTISRDNAKNSVYLQMNSLKPEDSAVYYCNADWVFTWYDYPNDKYDYWGQGTQVTVSS	low polyreactivity
HVKLVESGGGLVQAGGCLRLSCAASGSNFFHNAMGWYRQAPGKERELVATISWRSASTYYADSVKGRFTISRDNAKKTVYLQMNSLKPEDTAVYYCAAKLHYRQYYYRYGYDYWGQGTQVTVSS	high polyreactivity
HVPLVESGGGLVQAGGSLRLSCAASGFTFRANGMGWYRQAPGKERELVATIPSGGTTNYADSVKGRFTISRDNAKKTVYLQMNSLKPEDNAVYDCAASLGANGFQGRMYYWGQGTQVTVSS	low polyreactivity

Sequence	polyreactivity (PSR sort gate)
HVQHVESGGGLVQAGGSLRLSCAASGLIFGVNAMGWYRQAPGKERELVATITSGTSTYYADSVKGRFTISRDNAKNTVYLQMNSLKPEDNAVSYCAVRNGDSWYYYWGQGTQVTVSS	low polyreactivity
HVQHVESGGGLVQAGGSLRVSCAASGSTFYYNAMGWYRQAPGKERELVARISRSGASTYYADSVKGRFTISRDIAKNSVYLQMNSLKPEDTAVYYCATRNLGHERWYYYWGQGTQVTVSS	high polyreactivity
HVQLEESGGGLVQAGGSLRLSFAASGSIRKYYAMGSYIQAPAKERELDAAISGSGSTTYYADSVKGRFTISRDNAKNTVYLELNSLKPEDTAVYYCAAVYAFGNRYAYGSDSWGQGTQVTVSS	low polyreactivity
HVQLEESGVGLVQAGGSLRVSCAASGSTFGYYRMGGYRQAPGKERELVAAISWRGGSTYYADSVKGRFTISRDNAMNTVYCQMNSLKPEDTAVYYCAAPVGNYGSIDYWGQVTQVTVSS	low polyreactivity
HVQLQESGGGLVQAGGSLRLSCAASGNISYSRNMGWYRQAPGKERELVAAIDRGAITYYADSVKGRFTISRDNATNTVYLQIYSLKPEDTAVYYCAAEYHDRWDHRYWGQGTQVTVSS	high polyreactivity
HVQLQESGGGLVQAGGSLRLSCAASGSIFQATYMGWYRQAPGKEREFVASITYGSITNYADSVKGRFTIGRDNPKDTLYLQMNSLKPEDTAVYYCAVDRHYIPAFHYWGQGTQVTVSS	low polyreactivity
HVQLQESGGGLVQAGGSLRLSCAASGSISRNYDMGWYRQAPGKEREFVAGISGGAITYYADSVKGRFTISRDNAKNTVYLQMNSLKPEDTAVYYCAADTGVYQYHSYWGQGTQVTVSS	low polyreactivity
HVQLVESGAGLVQAGGSLRLSCAASGSIFGFYAMGWYRQAPGKERELVAAISSSGDSTYADSVKGRFTISRDNAKNTVYLQMNSLKPEDTAVYYCAADEDSRNWGQGTQVTVSS	high polyreactivity
HVQLVESGGGLFQAGGSLRLICAASGSTFGFYAMGWYRQAPGKERELVAAISRRTGSTYYADSVKGRFTISRDNAKNTVYLQMNSLKPEDTAVYYCNTDQSQKTVGYDYWGQGTQVTVSS	high polyreactivity
HVQLVESGGGLVQAGASLRLSCAASGRTFGRYAMGWSRQAPGKERELVAAIRSGGSTYYADSVKGRFTISRDNAKNTVYLQMNSLNPEDPAVYYCAADIARHLTGFAYDRLDYCGQGTQVTVSS	low polyreactivity
HVQLVESGGGLVQAGGSLRLICAASGGTFAGYSMGWYRQAPGKDRELVAAITYRSSTTYYADSVKGRFTISRDNAKNTVYLQMNSLKPEDTAVYYCAARTRGTGRNLDYWGQGTQVNVSS	high polyreactivity
HVQLVESGGGLVQAGGSLRLRCAASGFTIRSYVMGWYRQAPGKERELVAAIRRSGGSTYYADSVKGRFTISRDNAKNTVYLQMNSLKPEDTAVYYCNTVSGYGQPRGDYWGQGTQVTVSS	high polyreactivity
HVQLVESGGGLVQAGGSLRLSCAASGFTFPANAMGWYRQAPGKERELVAAISSSGGTYYADSVMGRFTISRDNAKNTVYLQMTSLKQEDTAVYYCAAYRFKYYYWGQGTQVSVSS	high polyreactivity
HVQLVESGGGLVQAGGSLRLSCAASGGIFVYYAMGWYRQAPGKVRELVAAISRSAASTYYADSVKGRFTISRDNAKNTVYLQMNSLKPEDTADYYCAAGQLTDKGGGDSWGQGTQVTVSS	low polyreactivity
HVQLVESGGGLVQAGGSLRLSCAASGIIFQRNAMGWYRQAPGKERELVAPISYSDGSTYYADSVKGRFTISRDNAKNTVYLQMNSLKPEDTAVYYCAARRFGRLALYFRFDYWGQGTQVTVSS	low polyreactivity
HVQLVESGGGLVQAGGSLRLSCAASGITFYDNVMGWYRQAAGKERELVAAITDSGGSTYYADSVKGRFTISRDNEKNTDYLQMNSLNPEDTAVYYCNAEVNAHWWWYIEDYWGQGTQVTVSS	low polyreactivity
HVQLVESGGGLVQAGGSLRLSCAASGPTFVTNAKGWYRQAPGKERELVAAISRSGGHTYYADSVKGRFTISRDIAKNTVYLQMNSLKPEDTAVYYCAKNRGPRTLYDYWGQGTQVTVSS	high polyreactivity
HVQLVESGGGLVQAGGSLRLSCAASGRIFASYPMGWYRPAPGNERELVAAISLSGGSTYYADSVKGRFTISRDNAKNTVYLQMNSLKPEDTAVYYCAAKNYRRYRDYYWGQGTQVTVSS	high polyreactivity
HVQLVESGGGLVQAGGSLRLSCAASGRIFRYAMAWYRQAPGNETELVAAISSSGGGTYYADSVKGRFTISRDNAKNTVNLQMNSLKREDTAVYYCIAEYGWRFDYWGQGTQVTVSS	high polyreactivity
HVQLVESGGGLVQAGGSLRLSCAASGRILHLNAMGWYRQAPGKERELVAAITRSGSSTYYADSVKGRFTISRDNAKNTVYLQMNSLKAEDTAVYYCAADWYPHSSAYDYWGQGTQVTVSS	low polyreactivity
HVQLVESGGGLVQAGGSLRLSCAASGSICSWYGMGWYRQAPGKERELVAAITWTGGSTYYADSVKGRFTISRDNAKNTVYLQMNSLKQEDTAVYYCSADLRYVGFYYWGQGTQVTVSS	high polyreactivity
